{"source": "patent US20030078191A1", "assay_in_all_cases": "cell-based or functional assay", "key": {"[1]": {"biological_target": "Gal4ad-ZipA(35-185) fusion (pGAD424 fusion) (Escherichia coli)", "sequence (P04386 768-881)": "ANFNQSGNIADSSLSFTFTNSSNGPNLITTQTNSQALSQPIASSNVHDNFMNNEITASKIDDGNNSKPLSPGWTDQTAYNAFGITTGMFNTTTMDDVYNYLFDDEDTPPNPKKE"}, "[2]": {"biological_target": "Gal4ad-ZipA(35-284) fusion (pGAD424 fusion) (Escherichia coli)", "sequence (P04386 768-881)": "as above"}, "[3]": {"biological_target": "Gal4ad-ZipA(62-328) fusion (pGAD424 fusion) (Escherichia coli)", "sequence (P04386 768-881)": "as above"}, "[4]": {"biological_target": "Gal4 activation domain alone (pGAD424 vector, no fusion) (UniProt P04386)", "sequence (P04386 768-881 limits assumed)": "as the sequence (P04386 768-881) above"}, "[5]": {"biological_target": "Gal4ad-ZipA(185-302) fusion (pGAD424 fusion) (Escherichia coli)", "sequence (P04386 768-881)": "as above"}, "[6]": {"biological_target": "Gal4ad-ZipA(185-328) fusion (pGAD424 fusion) (Escherichia coli) (UniProt P77173)"}}, "data": [{"substance": "Gal4 DNA-binding domain alone (pAS2-1 vector, no fusion) (from UniProt P04386 1-147)", "values": [{"measurement": "beta-galactosidase (lacZ reporter) activity, MUG fluorescence, yeast two-hybrid", "setting": "[1]", "result": 930, "unit": "units"}, {"measurement": "beta-galactosidase (lacZ reporter) activity, MUG fluorescence, yeast two-hybrid", "setting": "[2]", "result": 832, "unit": "units"}, {"measurement": "beta-galactosidase (lacZ reporter) activity, MUG fluorescence, yeast two-hybrid", "setting": "[3]", "result": 743, "unit": "units"}, {"measurement": "beta-galactosidase (lacZ reporter) activity, MUG fluorescence, yeast two-hybrid", "setting": "[4]", "result": 621, "unit": "units"}, {"measurement": "beta-galactosidase (lacZ reporter) activity, MUG fluorescence, yeast two-hybrid", "setting": "[5]", "result": 1120, "unit": "units"}, {"measurement": "beta-galactosidase (lacZ reporter) activity, MUG fluorescence, yeast two-hybrid", "setting": "[6]", "result": 877, "unit": "units"}]}]}
